The source of these data is patent US20210179715A1 (Genentech, published 2021).

“And” between values parts separate entries of the source, which are not always exact repeats. Equal values may be shown once. Read-outs that look alike come from different tables or passages of the source.

The target of assay [1] is T1, human LY6G6D-Fc (human, UniProt O95868 20-104).
T1 construct: also called hu Ly6G6D; huLY6G6D; not shown: linker and Fc part
T1 sequence: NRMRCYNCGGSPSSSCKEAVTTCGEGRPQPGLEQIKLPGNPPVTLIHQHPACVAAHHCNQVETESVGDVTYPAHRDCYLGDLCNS
The experiment in a line: BIAcore SPR; LY6G6D-Fc on chip; TDB flowed; 37 C. The procedure:
The humanized rb.20A12 variant 20A12.QNTv12, the humanized rb.6E10 variant 6E10.v114, and the anti-LY6G6D 1G4 arm were paired with the anti-CD3 38E4v1 or 40G5c arm as TDBs and tested for affinity to human and cynomolgus LY6G6D in a BIAcore® assay. Rabbit 20Al2, rabbit 6E10, and humanized 20A12.QNTv12 and 20A12.SNVv12 were additionally assayed for binding as antigen-binding fragments (Fabs). LY6G6D-Fc was directly immobilized on a chip, and TDBs were flowed through at 37° C., except for the rb6E10 Fab, which was assayed at 25° C.

Assay [2] concerns the target T2, human extracellular domain (ECD) of CD3 (human, UniProt P07766 23-126).
T2 construct: extracellular domain; also called huCD3
Briefly: BIAcore SPR; two-cell TDB.

The target in assay [3] is T3, cyno extracellular domain (ECD) of CD3 (cynomolgus monkey, UniProt Q95LI5 22-117).
T3 construct: extracellular domain; also called CyCD3
T3 sequence (looked up): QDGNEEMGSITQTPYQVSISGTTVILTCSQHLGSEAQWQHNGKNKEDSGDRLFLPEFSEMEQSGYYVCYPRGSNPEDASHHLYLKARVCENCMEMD
The experiment in a line: BIAcore SPR; two-cell TDB.

Assay [4] has as its target T1, human LY6G6D-Fc. The experiment in a line: BIAcore SPR; two-cell TDB.
Assay [5] has as its target T4, 27mer human CD3 polypeptide conjugated to biotin (human, conjugated to biotin (site not stated)).
T4 construct: The assay text says only '27mer human CD3 polypeptide'; also called HuCD3e pept biotin
T4 peptide: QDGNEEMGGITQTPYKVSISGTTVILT
Briefly: BIAcore T200 SPR; biotin 27mer CD3 peptide on SA chip; TDB flowed; 37 C. The procedure:
The MD1 and MD4 variants thus retained the high affinity of 38E4v1. Assays were performed using a BIAcore T200: 27mer human and cyno CD3 polypeptides were conjugated to biotin and were immobilized on a SA CM5 chip, and TDBs were flowed through at 100 μl/min at 37° C.

In assay [6] the target is T1, human LY6G6D-Fc. The experiment in a line: BIAcore SPR; LY6G6D-Fc on chip; TDB flowed; 37 C. The procedure: TDBs comprising the anti-LY6G6D arm 20Al2.QNTv12 and the anti-CD3 38E4.v1 (left panel; produced using a two-cell-manufacturing system), 38E4.v1 MD1 (center panel; produced using a one-cell-manufacturing system), or 38E4.v1 MD4 arm (right panel; produced using a one-cell-manufacturing system) were assayed for affinity for a human Ly6G6D polypeptide (FIG. 25) using a BIAcore assay.
The source holds these as a separate data set.

Another assay has as its target T5, LY6G6D on HT55 cells (human, UniProt O95868 20-104).
T5 sequence: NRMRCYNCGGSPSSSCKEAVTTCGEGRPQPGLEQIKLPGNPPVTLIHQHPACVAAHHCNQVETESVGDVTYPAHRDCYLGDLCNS
The experiment in a line: cell-based or functional assay.

The target in assay [7] is T4, 27mer human CD3 polypeptide conjugated …. Briefly: BIAcore T200 SPR; biotin 27mer CD3 peptide on SA chip; TDB flowed; 37 C. The procedure: Assays were performed using a BIAcore T200. 27mer human and cyno CD3 polypeptides were conjugated to biotin and were immobilized on a SA CM5 chip. LY6G6D TDBs were flowed through at 37° C.

T2 sequence (P07766 23-126): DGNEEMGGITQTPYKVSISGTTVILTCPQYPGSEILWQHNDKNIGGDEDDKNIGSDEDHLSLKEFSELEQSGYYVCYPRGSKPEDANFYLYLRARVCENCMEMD

B1: LY6G6D TDB comprising the anti-LY6G6D 20A12.QNTv12 arm (two-cell) and the anti-CD3 38E4v1 arm (bispecific antibody, V domains shown)
VH 1: EVQLLESGGGLVQPGGSLRLSCAASGFDFVNNAMIWVRQAPGKGLEWVSALSFADNTAYYATWASGRFTISRDSSKTTVYLQMNSLRAEDTAVYYCMRGDLWGPGTLVTVSS
VL 1: DIQMTQSPSTLSASVGDRVTITCQASESITRYLNWYQQKPGKAPKLLIYDASKLPSGVPSRFSGSGSGTEFTLTISSLQPDDFATYYCQSTSFRGRSYQNTFGGGTKVEIK
VH 2: EVQLVQSGAEVKKPGASVKVSCKASGFTFTSYYIHWVRQAPGQGLEWIGWIYPENDNTKYNEKFKDRVTITADTSTSTAYLELSSLRSEDTAVYYCARDGYSRYYFDYWGQGTLVTVSS
VL 2: DIVMTQSPDSLAVSLGERATINCKSSQSLLNSRTRKNYLAWYQQKPGQSPKLLIYWTSTRKSGVPDRFSGSGSGTDFTLTISSLQAEDVAVYYCKQSFILRTFGQGTKVEIK
notes: Full-length IgG1 kappa; also called hu20A12.QNTv12/38E4v1 TDB; 20A12.QNTv12/38E4v1
For B1, the dissociation constant (Kd) is 2.02 nM in the assay with human LY6G6D-Fc [1]; 20 nM in assay [2]; 15 nM in assay [3]; 2.02 nM with human LY6G6D-Fc [4]; 17.6 nM and 21.9 nM in assay [5]; 1.39 nM with human LY6G6D-Fc [6]. The molecule further yielded a Kd in assay [7] of 19.8 nM. Also, the dissociation rate constant (koff) in the assay with human LY6G6D-Fc [1] is 0.000444 s⁻¹; in assay [5], 0.0429 s⁻¹ and 0.0486 s⁻¹; with human LY6G6D-Fc [6] it was 0.000416 s⁻¹. Further, the on-rate (kon) is 220000 M⁻¹ s⁻¹ with human LY6G6D-Fc [1]; 2.44e+06 M⁻¹ s⁻¹ and 2.22e+06 M⁻¹ s⁻¹ in assay [5]; 299000 M⁻¹ s⁻¹ with human LY6G6D-Fc [6]. In the assay with LY6G6D on HT55 cells, the “average CD8+T cell activation EC50” value was ~87 ng/ml and ~583 pM. In addition, the “average cell killing EC50” value with LY6G6D on HT55 cells was ~1.04 ng/ml and ~7 pM.
